Assay [1] concerns the target ArbB2 Pro242Ala (Coffea arabica).
In assay [2] the target is ArbB2 Met160Ala (Coffea arabica).

For the molecule GNTLKDFESKPGSFLWGYQG [ArbA2_(58–77) (ArbA2-FLWGY)], the loss of activity (relative conversion of ArbA2-FLWGY to product) against ArbB2 (% loss of activity) worked out at 90 in assay [1] and 60 in assay [2].

The values are drawn from article PMC12186524.
